Data: PMC11986105 (2025)
Several values for one entry are separate records, joined by “and”; a condition that tells them apart may be missing. Identical values can stand only once. Ends that are not written are not given here.

What was measured:
[1] = target: T1, E. coli K-12 BamA β-barrel (residues 421–810), N-terminally biotinylated (E. coli K-12 (strain MG1655), UniProt P0A940 421-810, biotin on the N-terminal Avitag (BirA ligase)); experiment: SPR
[2] = target: T1, E. coli K-12 BamA β-barrel (residues …); experiment: SPR; remark: listed apart in the source
[3] = target: T1, E. coli K-12 BamA β-barrel (residues …); experiment: SPR; apparent, BamA pre-equilibrated with 2 uM darobactin

Row | Binder | koff [1] [s⁻¹] | Kd [2] | Kd [3] [nM]
1 | FLWFYHRPVRGFDCG (also: cyclic peptide, closure not given here) [cyclic peptide CP1] | 0.0023 | 6.6 nM and ~8 nM | ~5
2 | WNWSKSF (also: post-translationally formed bicyclic ring structures) [darobactin] | 0.012 | – | –
